Measurements from publication PMC12891897, “Blocking TRIM47-mediated HNF4α degradation suppresses hepatocellular carcinoma progression” (Acta Pharmaceutica Sinica. B, 2025).

Biological target: Flag-tagged TRIM47 (tripartite motif 47), full length (amino acids 1–638), Q96LD4-1
Experiment: Co-IP (IP-Flag) and Western blotting, V5 band quantified
Settings: HEK293T cells, co-transfected for 48 h; parent: 1

Sequence of Flag-tagged TRIM47 (tripartite motif 47), full length (amino acids 1–638), Q96LD4-1 (Q96LD4 whole entry, the tested form may be a part): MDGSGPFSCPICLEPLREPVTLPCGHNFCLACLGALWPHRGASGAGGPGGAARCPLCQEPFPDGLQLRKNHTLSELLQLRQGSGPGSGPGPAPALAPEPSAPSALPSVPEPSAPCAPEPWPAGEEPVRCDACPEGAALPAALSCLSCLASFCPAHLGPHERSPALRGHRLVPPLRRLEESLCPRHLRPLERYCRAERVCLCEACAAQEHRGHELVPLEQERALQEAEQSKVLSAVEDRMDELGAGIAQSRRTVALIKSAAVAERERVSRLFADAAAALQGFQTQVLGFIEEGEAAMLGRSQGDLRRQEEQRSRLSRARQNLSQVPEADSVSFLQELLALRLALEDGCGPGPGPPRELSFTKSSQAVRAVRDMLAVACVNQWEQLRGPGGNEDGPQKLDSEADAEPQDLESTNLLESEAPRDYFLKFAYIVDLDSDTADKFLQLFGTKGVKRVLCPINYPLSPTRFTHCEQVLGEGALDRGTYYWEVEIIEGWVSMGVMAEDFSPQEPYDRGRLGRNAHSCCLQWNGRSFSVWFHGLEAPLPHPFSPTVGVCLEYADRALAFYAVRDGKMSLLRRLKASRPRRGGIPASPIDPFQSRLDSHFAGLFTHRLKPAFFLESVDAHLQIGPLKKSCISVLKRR

Point of comparison: “V5-tagged HNF4α (hepatocyte nuclear factor 4alpha), full length (amino acids 1–474) (from UniProt P41235-1) K342A; W349A; E353A”, ratio to parent 0.23 Fold. Against it:
- V5-tagged HNF4α (hepatocyte nuclear factor 4alpha), full length (amino acids 1–474) (from UniProt P41235-1) E353A — higher, 0.38 Fold
- V5-tagged HNF4α (hepatocyte nuclear factor 4alpha), full length (amino acids 1–474) (from UniProt P41235-1) K342A — higher, 0.56 Fold
- V5-tagged HNF4α (hepatocyte nuclear factor 4alpha), full length (amino acids 1–474) (from UniProt P41235-1) W349A — higher, 0.49 Fold

Biological target: V5-tagged HNF4α (hepatocyte nuclear factor 4alpha), full length (amino acids 1–474), P41235-1
Experiment: as above
Settings: HEK293T cells, transfected for 48 h; parent: 1

Point of comparison: “Flag-tagged TRIM47 (tripartite motif 47), full length (amino acids 1–638) (from UniProt Q96LD4-1) K534A; K600A”, ratio to parent 0.49 Fold. Against it:
- Flag-tagged TRIM47 (tripartite motif 47), full length (amino acids 1–638) (from UniProt Q96LD4-1) K534A — higher, 0.79 Fold
- Flag-tagged TRIM47 (tripartite motif 47), full length (amino acids 1–638) (from UniProt Q96LD4-1) K600A — higher, 0.83 Fold
